Results reported in article PMC3683295.

Tests used:
BCL-xLΔLΔC (human) [1] = target: BCL-xLΔLΔC (human) (UniProt Q07817); assay: native gel or EMSA
BCL-xLΔLΔC (human) [2] = target: BCL-xLΔLΔC (human) (UniProt Q07817); assay: AUC
BCL-xLΔC (human) = BCL-xLΔC (human) (UniProt Q07817); assay: native gel or EMSA
BCL-xLΔLΔC (human) [3] = target: BCL-xLΔLΔC (human) (UniProt Q07817); assay: NMR solution structure

stoichiometry N (BCL-xLΔLΔC (human) [1]) | stoichiometry N (BCL-xLΔLΔC (human) [2]) | stoichiometry N (BCL-xLΔC (human)) | stoichiometry N (BCL-xLΔLΔC (human) [3]) | Substance
2 | – | – | – | BCL-xLΔLΔC (from UniProt Q07817-1 1-211) (domain or fragment)
– | 1 | 1 | 1 | PUMA^BH3 (peptide)
– | – | 2 | – | BCL-xLΔC (from UniProt Q07817-1 1-211) (domain or fragment)
